Common to all, as to assay: EMSA
A general note: A gel shift assay detects complexes by their altered migration in electrophoresis.

For data set [1], the target named is T1, A1Δ (L23 deletion);L2 RNA-editing ligase (full length, mature) (Trypanosoma brucei;Trypanosoma brucei, UniProt Q95W15;P86925 196-657+=GASG+696-762;21-416, internal_change|).
T1 sequence 1: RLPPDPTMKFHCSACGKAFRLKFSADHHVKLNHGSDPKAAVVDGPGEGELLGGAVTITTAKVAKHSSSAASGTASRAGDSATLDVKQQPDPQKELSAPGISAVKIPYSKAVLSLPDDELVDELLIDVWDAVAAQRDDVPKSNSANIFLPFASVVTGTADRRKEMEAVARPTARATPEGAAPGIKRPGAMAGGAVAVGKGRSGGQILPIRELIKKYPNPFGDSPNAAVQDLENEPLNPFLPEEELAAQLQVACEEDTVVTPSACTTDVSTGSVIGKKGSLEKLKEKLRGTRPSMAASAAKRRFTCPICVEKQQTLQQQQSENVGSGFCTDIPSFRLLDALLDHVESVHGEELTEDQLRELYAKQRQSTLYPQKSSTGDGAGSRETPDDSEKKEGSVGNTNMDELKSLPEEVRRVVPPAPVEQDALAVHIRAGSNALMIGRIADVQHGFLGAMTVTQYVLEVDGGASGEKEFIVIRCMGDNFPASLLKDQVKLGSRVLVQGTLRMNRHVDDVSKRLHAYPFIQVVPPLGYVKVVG
T1 sequence 2: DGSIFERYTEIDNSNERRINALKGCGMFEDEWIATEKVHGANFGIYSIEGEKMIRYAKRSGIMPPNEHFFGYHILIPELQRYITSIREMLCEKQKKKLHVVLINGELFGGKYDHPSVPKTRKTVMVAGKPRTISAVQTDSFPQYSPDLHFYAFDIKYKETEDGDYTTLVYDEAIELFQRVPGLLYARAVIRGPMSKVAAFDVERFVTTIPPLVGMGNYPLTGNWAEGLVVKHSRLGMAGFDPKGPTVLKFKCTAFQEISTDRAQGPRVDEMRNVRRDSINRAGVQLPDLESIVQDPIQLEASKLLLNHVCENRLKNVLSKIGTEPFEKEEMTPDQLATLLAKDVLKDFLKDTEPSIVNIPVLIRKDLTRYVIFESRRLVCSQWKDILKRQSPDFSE

The target of data set [2] is T2, A1 R731E;L2 RNA-editing ligase (full length, mature) (Trypanosoma brucei;Trypanosoma brucei, UniProt Q95W15;P86925 196-762;21-416, R731E|).
T2 sequence 1: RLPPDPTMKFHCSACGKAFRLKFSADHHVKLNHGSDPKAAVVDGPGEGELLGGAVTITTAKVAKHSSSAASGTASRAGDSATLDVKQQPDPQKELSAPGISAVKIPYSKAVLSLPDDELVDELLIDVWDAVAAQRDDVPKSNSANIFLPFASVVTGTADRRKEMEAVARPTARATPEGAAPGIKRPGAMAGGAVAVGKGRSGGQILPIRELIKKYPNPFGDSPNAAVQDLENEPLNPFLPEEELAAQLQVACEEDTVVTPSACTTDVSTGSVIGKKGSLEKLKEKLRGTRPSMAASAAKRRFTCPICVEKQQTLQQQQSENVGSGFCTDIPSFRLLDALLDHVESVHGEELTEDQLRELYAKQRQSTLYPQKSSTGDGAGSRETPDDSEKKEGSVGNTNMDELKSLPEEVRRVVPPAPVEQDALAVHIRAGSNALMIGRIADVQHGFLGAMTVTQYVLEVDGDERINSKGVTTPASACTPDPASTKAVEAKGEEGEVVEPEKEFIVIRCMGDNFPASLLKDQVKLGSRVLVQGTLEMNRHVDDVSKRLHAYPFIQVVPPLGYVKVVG
T2 sequence 2: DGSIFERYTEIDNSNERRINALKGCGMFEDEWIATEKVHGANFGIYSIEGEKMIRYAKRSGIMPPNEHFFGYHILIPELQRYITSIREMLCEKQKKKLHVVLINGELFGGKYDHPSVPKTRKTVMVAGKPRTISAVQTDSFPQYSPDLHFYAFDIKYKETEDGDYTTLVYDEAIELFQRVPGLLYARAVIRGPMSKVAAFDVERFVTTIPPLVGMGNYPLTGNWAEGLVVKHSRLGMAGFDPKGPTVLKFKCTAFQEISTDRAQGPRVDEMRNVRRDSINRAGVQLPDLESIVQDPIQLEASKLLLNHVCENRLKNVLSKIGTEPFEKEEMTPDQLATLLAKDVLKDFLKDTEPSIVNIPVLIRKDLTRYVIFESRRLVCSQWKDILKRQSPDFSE

In data set [3] the target is T3, A1 R703E;L2 RNA-editing ligase (full length, mature) (Trypanosoma brucei;Trypanosoma brucei, UniProt Q95W15;P86925 196-762;21-416, R703E|).
T3 sequence 1: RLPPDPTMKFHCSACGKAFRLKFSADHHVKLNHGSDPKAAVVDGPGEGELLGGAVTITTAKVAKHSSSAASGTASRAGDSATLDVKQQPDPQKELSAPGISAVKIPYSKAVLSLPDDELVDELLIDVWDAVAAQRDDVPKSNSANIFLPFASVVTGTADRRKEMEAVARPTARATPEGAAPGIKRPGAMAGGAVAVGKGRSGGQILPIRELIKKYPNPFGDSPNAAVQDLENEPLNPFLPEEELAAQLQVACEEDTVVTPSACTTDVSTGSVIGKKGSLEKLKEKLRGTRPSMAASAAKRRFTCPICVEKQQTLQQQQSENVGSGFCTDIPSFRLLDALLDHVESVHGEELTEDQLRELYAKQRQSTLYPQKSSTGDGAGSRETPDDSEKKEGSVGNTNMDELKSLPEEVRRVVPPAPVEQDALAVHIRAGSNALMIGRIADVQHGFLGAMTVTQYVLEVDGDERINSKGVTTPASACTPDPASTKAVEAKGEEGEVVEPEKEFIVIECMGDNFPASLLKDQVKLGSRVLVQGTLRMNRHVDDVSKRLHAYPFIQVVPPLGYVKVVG
T3 sequence 2: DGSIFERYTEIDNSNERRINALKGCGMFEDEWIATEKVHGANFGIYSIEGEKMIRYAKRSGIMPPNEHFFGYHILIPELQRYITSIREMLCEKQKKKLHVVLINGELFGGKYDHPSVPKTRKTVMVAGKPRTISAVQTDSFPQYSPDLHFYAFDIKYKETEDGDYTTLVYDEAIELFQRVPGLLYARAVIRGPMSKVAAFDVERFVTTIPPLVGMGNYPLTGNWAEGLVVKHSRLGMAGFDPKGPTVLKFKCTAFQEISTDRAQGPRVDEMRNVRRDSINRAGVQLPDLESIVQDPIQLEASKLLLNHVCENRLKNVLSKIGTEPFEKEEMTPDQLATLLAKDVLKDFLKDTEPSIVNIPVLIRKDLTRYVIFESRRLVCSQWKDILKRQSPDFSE

The target of data set [4] is T4, A1 R734E;L2 RNA-editing ligase (full length, mature) (Trypanosoma brucei;Trypanosoma brucei, UniProt Q95W15;P86925 196-762;21-416, R734E|).
T4 sequence 1: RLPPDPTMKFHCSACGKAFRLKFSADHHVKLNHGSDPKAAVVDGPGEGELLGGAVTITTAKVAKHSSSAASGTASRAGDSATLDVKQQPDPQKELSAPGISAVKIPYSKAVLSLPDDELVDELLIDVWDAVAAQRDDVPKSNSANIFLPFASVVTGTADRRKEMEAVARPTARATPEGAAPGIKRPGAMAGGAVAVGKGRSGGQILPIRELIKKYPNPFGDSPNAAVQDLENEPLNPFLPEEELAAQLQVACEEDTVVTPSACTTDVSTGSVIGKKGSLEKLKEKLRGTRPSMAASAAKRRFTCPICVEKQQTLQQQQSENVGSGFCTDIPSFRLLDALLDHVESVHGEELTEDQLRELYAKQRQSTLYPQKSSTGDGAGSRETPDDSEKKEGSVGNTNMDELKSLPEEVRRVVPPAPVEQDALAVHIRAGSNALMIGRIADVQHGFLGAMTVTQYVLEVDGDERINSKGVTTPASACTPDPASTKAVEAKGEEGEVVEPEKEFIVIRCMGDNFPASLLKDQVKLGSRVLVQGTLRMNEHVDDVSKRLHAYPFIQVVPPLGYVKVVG
T4 sequence 2: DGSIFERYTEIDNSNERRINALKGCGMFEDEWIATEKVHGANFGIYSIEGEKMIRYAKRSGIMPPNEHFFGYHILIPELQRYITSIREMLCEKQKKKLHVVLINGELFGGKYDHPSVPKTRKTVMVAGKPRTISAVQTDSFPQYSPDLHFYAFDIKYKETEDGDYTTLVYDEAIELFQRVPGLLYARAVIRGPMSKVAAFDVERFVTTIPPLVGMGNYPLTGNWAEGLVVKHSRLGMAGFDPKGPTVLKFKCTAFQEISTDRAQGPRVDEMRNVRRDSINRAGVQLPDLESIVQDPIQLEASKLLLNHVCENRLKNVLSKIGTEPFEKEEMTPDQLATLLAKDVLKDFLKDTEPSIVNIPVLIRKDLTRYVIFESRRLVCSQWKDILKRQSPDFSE

Data set [5] has as its target T5, A1 L2BD;L2 RNA-editing ligase (full length, mature) (Trypanosoma brucei;Trypanosoma brucei, UniProt Q95W15;P86925 196-331;21-416, |).
T5 sequence 1: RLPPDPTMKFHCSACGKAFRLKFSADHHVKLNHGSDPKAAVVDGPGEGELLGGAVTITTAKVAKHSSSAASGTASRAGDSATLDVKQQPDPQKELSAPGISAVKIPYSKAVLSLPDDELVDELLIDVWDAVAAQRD
T5 sequence 2: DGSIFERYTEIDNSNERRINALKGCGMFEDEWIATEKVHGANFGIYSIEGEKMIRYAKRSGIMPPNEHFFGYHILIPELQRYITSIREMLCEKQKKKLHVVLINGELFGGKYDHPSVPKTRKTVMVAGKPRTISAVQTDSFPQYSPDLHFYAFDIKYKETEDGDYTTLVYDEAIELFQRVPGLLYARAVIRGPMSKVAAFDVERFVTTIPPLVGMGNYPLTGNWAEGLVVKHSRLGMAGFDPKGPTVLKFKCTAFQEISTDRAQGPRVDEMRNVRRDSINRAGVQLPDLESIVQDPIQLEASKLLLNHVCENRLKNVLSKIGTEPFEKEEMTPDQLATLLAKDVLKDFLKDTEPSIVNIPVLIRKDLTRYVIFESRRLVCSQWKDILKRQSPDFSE

For data set [6], the target named is T6, A1 (full length, mature);L2 A1BD (Trypanosoma brucei;Trypanosoma brucei, UniProt Q95W15;P86925 196-762;308-416, |).
T6 sequence 1: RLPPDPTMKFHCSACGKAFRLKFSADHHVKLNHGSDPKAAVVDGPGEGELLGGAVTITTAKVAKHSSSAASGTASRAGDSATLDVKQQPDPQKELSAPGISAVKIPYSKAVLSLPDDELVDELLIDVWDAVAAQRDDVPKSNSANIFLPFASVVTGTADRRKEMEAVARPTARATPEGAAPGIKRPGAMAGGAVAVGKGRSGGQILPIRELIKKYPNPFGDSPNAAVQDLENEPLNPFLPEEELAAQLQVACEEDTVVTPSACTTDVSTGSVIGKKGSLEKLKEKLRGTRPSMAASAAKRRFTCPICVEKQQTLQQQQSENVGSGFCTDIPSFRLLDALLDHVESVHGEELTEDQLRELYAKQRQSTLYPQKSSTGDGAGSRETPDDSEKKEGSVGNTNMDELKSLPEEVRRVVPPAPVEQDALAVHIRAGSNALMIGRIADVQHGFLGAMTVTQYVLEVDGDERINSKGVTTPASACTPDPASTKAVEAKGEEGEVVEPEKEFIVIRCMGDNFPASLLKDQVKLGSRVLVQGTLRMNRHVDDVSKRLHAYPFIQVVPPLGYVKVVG
T6 sequence 2: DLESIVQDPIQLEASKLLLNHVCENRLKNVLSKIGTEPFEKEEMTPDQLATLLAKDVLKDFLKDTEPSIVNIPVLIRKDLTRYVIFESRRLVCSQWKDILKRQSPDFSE

Data set [7] deals with T7, A1 (full length, mature);L2 RNA-editing ligase (full length, mature) (Trypanosoma brucei;Trypanosoma brucei, UniProt Q95W15;P86925 196-762;21-416, |).
T7 sequence 1: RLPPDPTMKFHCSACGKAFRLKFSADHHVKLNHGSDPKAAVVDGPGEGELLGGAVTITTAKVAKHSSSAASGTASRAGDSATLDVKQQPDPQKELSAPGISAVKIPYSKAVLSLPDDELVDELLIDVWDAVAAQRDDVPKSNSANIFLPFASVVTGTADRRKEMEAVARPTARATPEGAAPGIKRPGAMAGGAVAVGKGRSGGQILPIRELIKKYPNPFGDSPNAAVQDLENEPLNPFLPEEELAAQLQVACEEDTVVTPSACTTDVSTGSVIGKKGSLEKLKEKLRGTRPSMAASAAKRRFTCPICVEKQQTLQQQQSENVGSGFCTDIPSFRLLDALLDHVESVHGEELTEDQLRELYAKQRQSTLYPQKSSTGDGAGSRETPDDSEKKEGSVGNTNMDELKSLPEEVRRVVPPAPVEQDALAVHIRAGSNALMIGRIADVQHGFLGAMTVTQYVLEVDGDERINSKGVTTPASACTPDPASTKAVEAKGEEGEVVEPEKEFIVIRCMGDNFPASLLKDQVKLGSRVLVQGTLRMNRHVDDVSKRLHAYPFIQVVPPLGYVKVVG
T7 sequence 2: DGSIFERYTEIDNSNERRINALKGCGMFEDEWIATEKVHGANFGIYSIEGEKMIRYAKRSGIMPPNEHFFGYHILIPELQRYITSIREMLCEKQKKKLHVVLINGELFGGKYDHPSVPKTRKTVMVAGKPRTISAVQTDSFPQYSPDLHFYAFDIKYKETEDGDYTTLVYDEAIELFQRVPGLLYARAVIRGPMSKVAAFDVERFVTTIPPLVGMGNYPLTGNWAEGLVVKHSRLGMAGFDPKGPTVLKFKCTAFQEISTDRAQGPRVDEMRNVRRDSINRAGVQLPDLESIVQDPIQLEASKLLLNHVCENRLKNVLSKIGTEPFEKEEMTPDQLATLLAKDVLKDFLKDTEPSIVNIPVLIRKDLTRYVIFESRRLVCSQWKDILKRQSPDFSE

For the next data set, the target named is T8, L2 NTase domain (Trypanosoma brucei, UniProt P86925 21-285).
T8 sequence: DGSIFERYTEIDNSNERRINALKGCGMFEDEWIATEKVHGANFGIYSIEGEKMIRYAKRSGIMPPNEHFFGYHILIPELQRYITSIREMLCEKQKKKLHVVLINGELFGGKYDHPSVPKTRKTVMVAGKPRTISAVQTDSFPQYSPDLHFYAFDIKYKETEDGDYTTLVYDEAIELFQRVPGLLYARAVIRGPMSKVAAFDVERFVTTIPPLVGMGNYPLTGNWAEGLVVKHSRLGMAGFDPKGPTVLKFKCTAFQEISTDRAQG

From paper PMC3413154 come the findings set out here.

B1: 26-mer nicked dsRNA (dsRNA)
RNA 1: AUGAGACGUAGGUU
RNA 2: UUAUCGGAGUUC
RNA 3: GAACUCCGAUAAAACCUACGUCUCAU
Turning to B1, the binding result in data set [1] was “binds”; in data set [2], “no binding”; in data set [3] it was “no binding”; in data set [4], “no binding”; in data set [5] it was “no binding”; in data set [6] it was “no binding”. For the same molecule, the binding result in data set [7] is “binds”; with L2 NTase domain, “no binding”.
